From patent US20040234530 come the findings set out here.

Data set [1] concerns the target BODIPY FL-conjugated casein (EnzChek Protease Assay Kit, Molecular Probes).
Data set [2] concerns the target T1, C1-esterase inhibitor (human plasma protease C1 inhibitor), purified or in human serum, P05155.
T1 chain: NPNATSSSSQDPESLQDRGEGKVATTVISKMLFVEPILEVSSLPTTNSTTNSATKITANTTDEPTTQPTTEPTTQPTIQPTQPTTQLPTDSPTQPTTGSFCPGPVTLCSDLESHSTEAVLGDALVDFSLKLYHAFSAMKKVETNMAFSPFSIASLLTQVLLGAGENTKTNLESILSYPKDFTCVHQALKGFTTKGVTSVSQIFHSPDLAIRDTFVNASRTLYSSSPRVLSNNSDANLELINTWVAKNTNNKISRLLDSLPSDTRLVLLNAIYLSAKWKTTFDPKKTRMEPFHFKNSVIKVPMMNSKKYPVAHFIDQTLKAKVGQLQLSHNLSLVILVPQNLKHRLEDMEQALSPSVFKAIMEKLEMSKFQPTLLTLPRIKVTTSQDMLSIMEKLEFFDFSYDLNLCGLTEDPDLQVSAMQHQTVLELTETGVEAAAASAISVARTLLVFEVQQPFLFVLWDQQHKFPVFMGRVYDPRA

The target of data set [3] is Elastin (Sigma, St. Louis, MO).
Data set [4] has as its target Gelatin (BioRad, Hercules, CA).
The target in data set [5] is antithrombin (Enzyme Research Labs, South Bend, IN), P01008.
Data set [6] addresses collagen IV (Rockland, Gilbertsville, PA).
Data set [7] has as its target fibronectin (Calbiochem, San Diego, CA), P02751.
In data set [8] the target is serum albumin (New England Biolabs, Beverly, MA).
In data set [9] the target is von Willebrand factor (gift from Dr. D. Mosher, UW-Madison), P04275.
The target of data set [10] is T2, α1-antichymotrypsin (Sigma, St. Louis, MO), P01011.
T2 chain: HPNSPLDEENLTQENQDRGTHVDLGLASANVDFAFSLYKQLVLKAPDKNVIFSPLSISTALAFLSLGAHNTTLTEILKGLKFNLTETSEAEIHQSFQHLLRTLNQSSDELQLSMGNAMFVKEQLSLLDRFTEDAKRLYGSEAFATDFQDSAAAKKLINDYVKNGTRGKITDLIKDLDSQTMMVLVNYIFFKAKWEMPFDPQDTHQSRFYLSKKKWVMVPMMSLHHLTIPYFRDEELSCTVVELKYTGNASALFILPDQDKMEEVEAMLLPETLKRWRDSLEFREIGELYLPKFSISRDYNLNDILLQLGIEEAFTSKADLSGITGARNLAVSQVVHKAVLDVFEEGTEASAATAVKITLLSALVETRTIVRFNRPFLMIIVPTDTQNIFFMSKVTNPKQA

The target of data set [11] is α1-antitrypsin (Sigma, St. Louis, MO), P01009.
Data set [12] concerns the target T3, α2-antiplasmin (Calbiochem, San Diego, CA), P08697.
T3 chain: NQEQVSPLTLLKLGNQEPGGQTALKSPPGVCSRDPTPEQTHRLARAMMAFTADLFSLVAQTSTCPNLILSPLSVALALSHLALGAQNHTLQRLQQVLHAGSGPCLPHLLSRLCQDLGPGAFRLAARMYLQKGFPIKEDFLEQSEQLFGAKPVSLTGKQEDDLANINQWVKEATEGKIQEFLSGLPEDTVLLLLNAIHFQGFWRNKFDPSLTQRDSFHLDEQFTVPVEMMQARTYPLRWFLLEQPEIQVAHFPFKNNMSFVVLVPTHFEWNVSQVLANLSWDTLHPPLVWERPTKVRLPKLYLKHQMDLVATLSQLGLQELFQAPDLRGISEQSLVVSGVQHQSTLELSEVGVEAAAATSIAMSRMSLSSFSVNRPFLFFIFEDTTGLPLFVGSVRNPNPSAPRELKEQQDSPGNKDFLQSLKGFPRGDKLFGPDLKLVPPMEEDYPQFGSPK

The target of data set [13] is T4, α2-macroglobulin (Calbiochem, San Diego, CA), P01023.
T4 chain: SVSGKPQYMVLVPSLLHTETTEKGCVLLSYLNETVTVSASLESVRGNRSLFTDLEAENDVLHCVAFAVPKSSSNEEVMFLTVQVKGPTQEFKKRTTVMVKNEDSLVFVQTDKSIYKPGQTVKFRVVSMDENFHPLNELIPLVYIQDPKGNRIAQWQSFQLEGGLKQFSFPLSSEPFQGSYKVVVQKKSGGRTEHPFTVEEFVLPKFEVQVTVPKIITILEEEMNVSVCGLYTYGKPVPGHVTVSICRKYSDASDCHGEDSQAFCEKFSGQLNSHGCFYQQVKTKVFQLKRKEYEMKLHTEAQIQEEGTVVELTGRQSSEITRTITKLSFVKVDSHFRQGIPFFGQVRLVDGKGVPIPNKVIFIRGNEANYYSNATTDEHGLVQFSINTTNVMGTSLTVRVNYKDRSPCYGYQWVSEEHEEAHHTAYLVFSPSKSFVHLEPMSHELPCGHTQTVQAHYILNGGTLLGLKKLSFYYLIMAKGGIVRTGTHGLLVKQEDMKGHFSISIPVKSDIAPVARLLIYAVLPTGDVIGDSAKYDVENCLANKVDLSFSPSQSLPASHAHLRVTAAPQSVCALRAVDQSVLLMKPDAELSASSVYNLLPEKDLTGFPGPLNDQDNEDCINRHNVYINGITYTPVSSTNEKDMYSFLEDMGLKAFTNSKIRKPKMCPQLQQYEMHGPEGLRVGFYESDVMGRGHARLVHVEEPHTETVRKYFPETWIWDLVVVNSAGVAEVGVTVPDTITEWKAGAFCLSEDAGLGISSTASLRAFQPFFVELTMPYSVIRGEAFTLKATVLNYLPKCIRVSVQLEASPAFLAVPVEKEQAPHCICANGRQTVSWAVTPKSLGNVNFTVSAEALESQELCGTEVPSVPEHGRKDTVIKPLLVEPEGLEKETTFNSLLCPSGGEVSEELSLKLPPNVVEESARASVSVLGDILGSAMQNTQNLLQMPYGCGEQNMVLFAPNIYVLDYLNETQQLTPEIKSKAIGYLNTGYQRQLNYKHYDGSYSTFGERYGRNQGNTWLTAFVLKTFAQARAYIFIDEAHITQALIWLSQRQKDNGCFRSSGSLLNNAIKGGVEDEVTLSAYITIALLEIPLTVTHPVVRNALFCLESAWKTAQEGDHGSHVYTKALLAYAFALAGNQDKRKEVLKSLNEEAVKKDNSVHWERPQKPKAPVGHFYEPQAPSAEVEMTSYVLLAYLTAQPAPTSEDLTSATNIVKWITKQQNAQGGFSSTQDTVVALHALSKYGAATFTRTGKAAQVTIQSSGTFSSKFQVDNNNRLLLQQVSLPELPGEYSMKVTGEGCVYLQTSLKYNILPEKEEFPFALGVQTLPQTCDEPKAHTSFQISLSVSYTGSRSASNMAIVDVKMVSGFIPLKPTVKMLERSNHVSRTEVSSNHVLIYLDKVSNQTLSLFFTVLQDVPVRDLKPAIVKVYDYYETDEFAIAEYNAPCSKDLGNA

Data set [14] deals with T5, C-serp(98), a recombinant C1-INH molecule lacking the N-terminal amino acids 1-97 and containing only the serpin domain, P05155.
T5 chain: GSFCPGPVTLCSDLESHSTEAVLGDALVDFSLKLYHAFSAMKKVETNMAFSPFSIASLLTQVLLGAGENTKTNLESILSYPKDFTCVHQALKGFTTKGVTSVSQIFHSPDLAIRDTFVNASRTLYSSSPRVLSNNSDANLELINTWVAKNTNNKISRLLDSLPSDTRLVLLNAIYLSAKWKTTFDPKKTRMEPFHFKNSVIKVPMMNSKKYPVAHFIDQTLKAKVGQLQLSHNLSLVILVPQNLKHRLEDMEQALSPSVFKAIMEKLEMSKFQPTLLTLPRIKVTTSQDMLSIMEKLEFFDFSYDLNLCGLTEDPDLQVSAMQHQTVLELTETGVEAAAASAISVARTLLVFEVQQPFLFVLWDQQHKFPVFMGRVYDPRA

The target of data set [15] is T6, recombinant, full-length human C1-INH (hC1-INH) expressed in COS-7 cells, 35S-methionine-labeled, P05155.
T6 chain: T1 chain

α1-antitrypsin (Sigma, St. Louis, MO), P01009, sequence (P01009 whole entry, looked up): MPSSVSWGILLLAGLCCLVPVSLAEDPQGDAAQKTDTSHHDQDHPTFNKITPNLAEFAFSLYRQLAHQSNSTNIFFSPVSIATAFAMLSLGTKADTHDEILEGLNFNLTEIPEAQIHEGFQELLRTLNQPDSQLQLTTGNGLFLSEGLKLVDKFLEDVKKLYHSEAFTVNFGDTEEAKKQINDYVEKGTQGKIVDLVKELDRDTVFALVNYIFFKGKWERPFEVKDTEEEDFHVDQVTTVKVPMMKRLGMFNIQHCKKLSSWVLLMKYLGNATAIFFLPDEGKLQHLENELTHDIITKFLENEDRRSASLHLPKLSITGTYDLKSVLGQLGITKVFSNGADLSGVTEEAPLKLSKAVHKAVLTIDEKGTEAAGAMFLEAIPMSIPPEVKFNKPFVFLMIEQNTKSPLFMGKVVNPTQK
fibronectin (Calbiochem, San Diego, CA), P02751, sequence (P02751 32-2477): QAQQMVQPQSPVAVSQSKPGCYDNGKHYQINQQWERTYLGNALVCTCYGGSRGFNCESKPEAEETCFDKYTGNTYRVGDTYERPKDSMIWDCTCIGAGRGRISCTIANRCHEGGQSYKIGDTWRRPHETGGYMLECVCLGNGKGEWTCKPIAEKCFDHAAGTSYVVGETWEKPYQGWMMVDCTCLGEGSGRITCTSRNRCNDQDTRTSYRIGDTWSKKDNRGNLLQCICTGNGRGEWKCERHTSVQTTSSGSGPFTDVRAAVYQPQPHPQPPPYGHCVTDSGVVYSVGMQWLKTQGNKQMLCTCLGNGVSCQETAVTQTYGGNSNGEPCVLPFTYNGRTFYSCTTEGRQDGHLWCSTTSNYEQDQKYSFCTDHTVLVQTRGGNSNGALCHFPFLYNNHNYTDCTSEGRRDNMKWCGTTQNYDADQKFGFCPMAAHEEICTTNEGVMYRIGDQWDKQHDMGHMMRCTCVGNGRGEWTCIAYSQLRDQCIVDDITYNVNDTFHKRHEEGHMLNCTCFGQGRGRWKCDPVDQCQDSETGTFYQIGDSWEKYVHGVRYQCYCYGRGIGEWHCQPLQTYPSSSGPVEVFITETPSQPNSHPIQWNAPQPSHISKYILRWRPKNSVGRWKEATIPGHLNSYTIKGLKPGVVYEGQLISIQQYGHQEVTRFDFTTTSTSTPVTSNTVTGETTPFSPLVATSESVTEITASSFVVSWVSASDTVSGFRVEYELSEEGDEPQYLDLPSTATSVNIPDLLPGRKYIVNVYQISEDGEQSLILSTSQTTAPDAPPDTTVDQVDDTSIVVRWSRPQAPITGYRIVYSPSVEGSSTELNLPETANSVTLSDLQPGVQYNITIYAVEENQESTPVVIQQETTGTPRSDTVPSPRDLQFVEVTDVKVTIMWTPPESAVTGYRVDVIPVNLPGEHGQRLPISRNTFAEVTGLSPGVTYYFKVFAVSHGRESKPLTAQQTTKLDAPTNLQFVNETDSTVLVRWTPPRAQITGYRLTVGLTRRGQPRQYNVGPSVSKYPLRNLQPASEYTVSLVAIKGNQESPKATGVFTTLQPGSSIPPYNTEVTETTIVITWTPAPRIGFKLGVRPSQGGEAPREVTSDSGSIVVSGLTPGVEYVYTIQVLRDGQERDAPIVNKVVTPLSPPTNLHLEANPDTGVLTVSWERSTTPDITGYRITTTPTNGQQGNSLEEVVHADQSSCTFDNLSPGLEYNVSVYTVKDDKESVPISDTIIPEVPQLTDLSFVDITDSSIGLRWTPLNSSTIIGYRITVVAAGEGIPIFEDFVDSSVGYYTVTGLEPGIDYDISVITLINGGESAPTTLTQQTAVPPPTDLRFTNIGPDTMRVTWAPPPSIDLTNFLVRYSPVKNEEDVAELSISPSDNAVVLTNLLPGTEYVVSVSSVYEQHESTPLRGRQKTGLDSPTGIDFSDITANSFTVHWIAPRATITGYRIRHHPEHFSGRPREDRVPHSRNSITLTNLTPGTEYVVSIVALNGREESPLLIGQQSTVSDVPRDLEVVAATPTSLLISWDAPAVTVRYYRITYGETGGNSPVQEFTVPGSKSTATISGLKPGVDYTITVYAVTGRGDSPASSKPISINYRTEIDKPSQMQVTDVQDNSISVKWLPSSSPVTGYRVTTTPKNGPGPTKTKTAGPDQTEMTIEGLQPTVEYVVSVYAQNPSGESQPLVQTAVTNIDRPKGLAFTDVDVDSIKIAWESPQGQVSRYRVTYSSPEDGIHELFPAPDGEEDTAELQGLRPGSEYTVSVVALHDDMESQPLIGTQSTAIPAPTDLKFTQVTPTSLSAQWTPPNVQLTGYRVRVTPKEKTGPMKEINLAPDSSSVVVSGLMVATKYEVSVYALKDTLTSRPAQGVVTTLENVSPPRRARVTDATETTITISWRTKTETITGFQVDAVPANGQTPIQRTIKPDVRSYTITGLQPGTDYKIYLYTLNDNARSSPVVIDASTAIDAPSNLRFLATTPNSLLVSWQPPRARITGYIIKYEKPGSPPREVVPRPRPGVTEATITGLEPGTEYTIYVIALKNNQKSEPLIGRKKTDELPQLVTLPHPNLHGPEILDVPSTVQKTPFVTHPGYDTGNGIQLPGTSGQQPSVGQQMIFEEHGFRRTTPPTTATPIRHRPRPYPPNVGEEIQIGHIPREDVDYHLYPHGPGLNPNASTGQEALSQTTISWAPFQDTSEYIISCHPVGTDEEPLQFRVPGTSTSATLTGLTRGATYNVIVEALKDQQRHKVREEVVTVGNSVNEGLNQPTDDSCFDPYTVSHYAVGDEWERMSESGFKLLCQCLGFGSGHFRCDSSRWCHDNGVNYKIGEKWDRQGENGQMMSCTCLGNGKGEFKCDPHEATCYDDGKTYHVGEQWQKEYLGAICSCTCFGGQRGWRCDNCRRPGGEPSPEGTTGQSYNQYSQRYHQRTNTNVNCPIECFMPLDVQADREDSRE
antithrombin (Enzyme Research Labs, South Bend, IN), P01008, sequence (P01008 whole entry, looked up): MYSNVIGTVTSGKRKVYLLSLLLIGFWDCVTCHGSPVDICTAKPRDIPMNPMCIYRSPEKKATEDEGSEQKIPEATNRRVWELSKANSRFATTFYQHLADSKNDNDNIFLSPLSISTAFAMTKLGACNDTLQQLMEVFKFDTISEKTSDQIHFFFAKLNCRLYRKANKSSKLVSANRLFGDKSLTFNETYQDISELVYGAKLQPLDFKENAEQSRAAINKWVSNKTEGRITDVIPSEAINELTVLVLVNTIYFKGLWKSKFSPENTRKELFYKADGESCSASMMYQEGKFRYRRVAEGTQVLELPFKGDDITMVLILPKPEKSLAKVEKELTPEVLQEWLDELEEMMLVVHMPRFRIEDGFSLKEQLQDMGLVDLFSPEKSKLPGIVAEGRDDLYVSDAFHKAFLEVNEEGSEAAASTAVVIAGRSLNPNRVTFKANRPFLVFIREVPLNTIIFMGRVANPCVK

B1: StcE-His (recombinant his-tagged form of StcE, from pWL107 in BL21(DE3), strain WAM2572) (protein)
chain: ADNNSAIYFNTSQPINDLQGSLAAEVKFAQSQILPAHPKEGDSQPHLTSLRKSLLLVRPVKADDKTPVQVEARDDNNKILGTLTLYPPSSLPDTIYHLDGVPEGGIDFTPHNGTKKIINTVAEVNKLSDASGSSIHSHLTNNALVEIHTANGRWVRDIYLPQGPDLEGKMVRFVSSAGYSSTVFYGDRKVTLSVGNTLLFKYVNGQWFRSGELENNRITYAQHIWSAELPAHWIVPGLNLVIKQGNLSGRLNDIKIGAPGELLLHTIDIGMLTTPRDRFDFAKDKEAHREYFQTIPVSRMIVNNYAPLHLKEVMLPTGELLTDMDPGNGGWHSGTMRQRIGKELVSHGIDNANYGLNSTAGLGENSHPYVVAQLAAHNSRGNYANGIQVHGGSGGGGIVTLDSTLGNEFSHEVGHNYGLGHYVDGFKGSVHRSAENNNSTWGWDGDKKRFIPNFYPSQTNEKSCLNNQCQEPFDGHKFGFDAMAGGSPFSAANRFTMYTPNSSAIIQRFFENKAVFDSRSSTGFSKWNADTQEMEPYEHTIDRAEQITASVNELSESKMAELMAEYAVVKVHMWNGNWTRNIYIPTASADNRGSILTINHEAGYNSYLFINGDEKVVSQGYKKSFVSDGQFWKERDVVDTREARKPEQFGVPVTTLVGYYDPEGTLSSYIYPAMYGAYGFTYSDDSQNLSDNDCQLQVDTKEGQLRFRLANHRANNTVMNKFHINVPTESQPTQATLVCNNKILDTKSLTPAPEGLTYTVNGQALPAKENEGCIVSVNSGKRYCLPVGQRSGYSLPDWIVGQEVYVDSGAKAKVLLSDWDNLSYNRIGEFVGNVNPADMKKVKAWNGQYLDFSKPRSMRVVYKHHHHHH
For B1, the “fluorescent measurement of casein degradation” value in data set [1] is listed as “StcE-His was unable to degrade casein even at high protein concentrations (up to 6.4 µg/unit of volume)”. Besides, the Proteolysis of substrates entry in data set [2] is recorded as “+”; in data set [3] it was “-”; in data set [4], “-”; in data set [5] it was “-”; in data set [6], “-”; in [7], “-”. Further, the Proteolysis of substrates result in data set [8], in [9], in data set [10], in data set [11], in data set [12] and in data set [13] was “-” each time.

B2: StcE′-His (lacking the StcE N-terminal signal sequence, 6xHis tag at the C-terminus; from pTB4, strain WAM2751) (protein)
chain: B1 chain
B2: the “cleavage of 35S-labeled recombinant protein (immunoprecipitation, SDS-PAGE)” value was “C-serp(98) was unaffected by the protease” in data set [14] and “only hC1-INH was cleaved by StcE′-His” in [15].

B3: Pseudomonas aeruginosa elastase (Calbiochem EC# 3.4.24.26) (protein)
chain: AEAGGPGGNQKIGKYTYGSDYGPLIVNDRCEMDDGNVITVDMNSSTDDSKTTPFRFACPTNTYKQVNGAYSPLNDAHFFGGVVFKLYRDWFGTSPLTHKLYMKVHYGRSVENAYWDGTAMLFGDGATMFYPLVSLDVAAHEVSHGFTEQNSGLIYRGQSGGMNEAFSDMAGEAAEFYMRGKNDFLIGYDIKKGSGALRYMDQPSRDGRSIDNASQYYNGIDVHHSSGVYNRAFYLLANSPGWDTRKAFEVFVDANRYYWTATSNYNSGACGVIRSAQNRNYSAADVTRAFSTVGVTCPSAL
Consider B3, for which the “fluorescent measurement of casein degradation” value in data set [1] is “elastase was able to act on casein at lower concentrations (range: 0.5 ng to 1 µg/unit of volume)”. In addition, the Proteolysis of substrates result in data set [2] is reported as “+”; in [3], “+”; in data set [4], “+”; in data set [5] it was “+”; in [6], “-”; in data set [7] it was “+”. In addition, the Proteolysis of substrates entry in data set [10], in data set [11], in [12] and in [13] was “+” in each case.
